Results from US20190225650A1, “PEPTIDOMIMETIC MACROCYCLES AND USE THEREOF IN REGULATING HIF1ALPHA” (AILERON THERAPEUTICS, INC., priority 2013, published 2019).
Values belong to the molecule of their own block, whether it stands above or below them. Bridge positions count the residues as written; N and C are the ends. Square brackets hold non-standard residues; d marks the D form. Peptide text beside a SMILES is read from it. R8 = C=CCCCCCC[C@@](C)(N)C(=O)O; S5 = C=CCCC[C@](C)(N)C(=O)O; Nle = CCCC[C@H](N)C(=O)O

Key:
[1] = biological target: T1, GST-tagged p300 CH1 domain (AAs 302-423) / HIF1α (AAs 788-826) (Homo sapiens, UniProt Q09472); experiment: Biolayer interferometry competition for binding to p300 CH1 domain; conditions: 300 nM p300 CH1
T1 construct: GST-tagged p300 CH1 domain (AAs 302-423)
T1 sequence (Q09472 302-423): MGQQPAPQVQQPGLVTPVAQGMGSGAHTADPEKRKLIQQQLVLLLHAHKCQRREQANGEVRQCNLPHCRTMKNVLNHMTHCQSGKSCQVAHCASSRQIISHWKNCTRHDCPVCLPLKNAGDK
Method: (§1) Biolayer inferometry (ForteBio, Menlo Park Calif.) was used to measure competition of SP-6 for HIF1α (AAs 788-826). Biotinylated HIF1α peptide was captured on […] biosensor tip. The association of 300 nM GST-tagged p300 CH1 domain (AAs 302-423) in the presence or absence of varying concentrations of SP-6 was measured for 240 s. Dissociation was monitored for a minimum of 200 s in the absence of free p300 or stapled peptide. Binding of p300 to biosensor immobilized HIF1α target was analyzed with instrument software and total response (R) was proportional to binding.
Inhibition of p300 binding was calculated as % inhibition=[…]. A concentration of 10 μM SP-6 blocked 99% of the total binding. The inhibition was dose-dependent, with 2 μM inhibiting 50% of p300/HIF1α binding.

[2] = biological target: T2, His6-tagged p300 (AA 323-423) (UniProt Q09472 323-423); experiment: TR-FRET HIF1a/p300 displacement; grade = IC50 <=200 nM
T2 construct: range 323-423; also called p300-CH; not shown: His6 tag
T2 sequence (Q09472 323-423 limits assumed): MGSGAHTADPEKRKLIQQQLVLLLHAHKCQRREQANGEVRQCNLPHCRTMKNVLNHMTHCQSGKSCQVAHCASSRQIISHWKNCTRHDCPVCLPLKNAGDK
Method: The ability of peptides to displace HIF1α c-terminal trans-activation domain from p300-CH was measured by a TR FRET assay. […] The complex was diluted to 300 nM final in complete assay media and competitor peptides were added. The complete assay media contained 150 mM NaCl (Sigma +S5150 or equivalent), 20 mM HEPES pH 7.4 (Boston Bioproducts, Ashland, Mass.; #BB-2076), 7.5 mM CHAPS (Thermo #28300 or equivalent), and 1 mM DTT. Protein and peptide were incubated at room temperature for 1 hour before the addition of anti-Flag-K and anti-6×HIS-D2 (CisBio, Bedford Mass.) HTRF reconstitution buffer (50 mM Phosphate pH 7, 0.8 Potassium Flouride, BSA 0.2%)¹ to a final concentration of 0.5 μM and 4 nM respectively. The reaction continued for an additional two hours at room temperature. The reaction was read on a TECAN F500 plate reader with settings recommended by CisBio. The ratio of donor to acceptor fluorescence was calculated. The resulting data was analyzed with Graphpad Prism 5.0. IC50 values were calculated for both proteins using the One Site Fit-LogIC50 equation and presented in the column “IC₅₀ (nM) (HIF1α_p300 Displacement+CHAPS)” of Table 6. ¹ Cisbio USA, Bedford, Mass.; 61HISDLB (lot 007A), 61FG2KLB (024A), HTRF Buffer (62RB3RDF)

[3] = biological target: T3, GST-tagged p300 CH1 domain (AAs 302-423) (UniProt Q09472 302-423); experiment: BLI competition, 300 nM GST-p300 CH1 on immobilised HIF1α 788-826
T3 construct: range 302-423; not shown: GST tag
T3 sequence (Q09472 302-423 limits assumed): as the sequence (Q09472 302-423) above
Method: as §1, with “Biotinylated” for “Biolayer inferometry (ForteBio, Menlo Park Calif.) was used to measure competition of SP-6 for HIF1α (AAs 788-826). Biotinylated”
A concentration of 10 μM SP-6 blocked 99% of the total binding. The inhibition was dose-dependent, with 2 μM inhibiting 50% of p300/HIF1α binding.

inhibition at 2 µM ([1]; 2 μM): 50%
inhibition at 10 µM ([1]; 10 μM): 99%
Molecule: CCCC[C@H](NC(=O)[C@H](CC(C)C)NC(=O)[C@@H](NC(=O)[C@H](CCC(=O)O)NC(=O)[C@H](CCC(=O)O)NC(=O)[C@H](CC(=O)O)NC(=O)[C@@H](NC(=O)[C@H](Cc1ccccc1)NC(C)=O)[C@@H](C)CC)C(C)C)C(=O)N[C@@]1(C)CCCC=CCCC[C@@](C)(C(=O)N[C@@H](CCCC)C(=O)N[C@@H](C)C(=O)N[C@@H](CC(C)C)C(=O)N[C@@H](CC(=O)O)C(=O)N[C@@H](CCCNC(=N)N)C(=O)N[C@H](C(N)=O)[C@@H](C)CC)NC(=O)[C@H]([C@@H](C)CC)NC(=O)[C@H](C(C)C)NC(=O)[C@H](CC(C)C)NC1=O [SP-6] (Ac-FIDEEVL[Nle][S5]LVI[S5][Nle]ALDRI-NH2; staple 9-13)

IC50 [2]: ≤ 200 nM
B1: SP-282 (peptide)
peptide: Ac-FIDEQVLM[S5]LVI[S5]MALDRI-NH2
modifications: staple 9-13
SMILES: CC[C@H](C)[C@H](NC(=O)[C@H](CCCNC(=N)N)NC(=O)[C@H](CC(=O)O)NC(=O)[C@H](CC(C)C)NC(=O)[C@H](C)NC(=O)[C@H](CCSC)NC(=O)[C@]1(C)CCCC=CCCC[C@](C)(NC(=O)[C@H](CCSC)NC(=O)[C@H](CC(C)C)NC(=O)[C@@H](NC(=O)[C@H](CCC(N)=O)NC(=O)[C@H](CCC(=O)O)NC(=O)[C@H](CC(=O)O)NC(=O)[C@@H](NC(=O)[C@H](Cc2ccccc2)NC(C)=O)[C@@H](C)CC)C(C)C)C(=O)N[C@@H](CC(C)C)C(=O)N[C@@H](C(C)C)C(=O)N[C@@H]([C@@H](C)CC)C(=O)N1)C(N)=O

IC50 [2]: ≤ 200 nM
IC50 [3]: 2000 nM
B2: SP-6 (peptide)
peptide: Ac-FIDEEVL[Nle][S5]LVI[S5][Nle]ALDRI-NH2
modifications: staple 9-13
SMILES: CCCC[C@H](NC(=O)[C@H](CC(C)C)NC(=O)[C@@H](NC(=O)[C@H](CCC(=O)O)NC(=O)[C@H](CCC(=O)O)NC(=O)[C@H](CC(=O)O)NC(=O)[C@@H](NC(=O)[C@H](Cc1ccccc1)NC(C)=O)[C@@H](C)CC)C(C)C)C(=O)N[C@@]1(C)CCCC=CCCC[C@@](C)(C(=O)N[C@@H](CCCC)C(=O)N[C@@H](C)C(=O)N[C@@H](CC(C)C)C(=O)N[C@@H](CC(=O)O)C(=O)N[C@@H](CCCNC(=N)N)C(=O)N[C@H](C(N)=O)[C@@H](C)CC)NC(=O)[C@H]([C@@H](C)CC)NC(=O)[C@H](C(C)C)NC(=O)[C@H](CC(C)C)NC1=O

IC50 [2]: ≤ 200 nM
B3: SP-119 (peptide)
peptide: Ac-FIDE[S5]VLM[S5]LVIE[Nle]ALDRI-NH2
modifications: staple 5-9
SMILES: CCCC[C@H](NC(=O)[C@H](CCC(=O)O)NC(=O)[C@@H](NC(=O)[C@@H](NC(=O)[C@H](CC(C)C)NC(=O)[C@]1(C)CCCC=CCCC[C@](C)(NC(=O)[C@H](CCC(=O)O)NC(=O)[C@H](CC(=O)O)NC(=O)[C@@H](NC(=O)[C@H](Cc2ccccc2)NC(C)=O)[C@@H](C)CC)C(=O)N[C@@H](C(C)C)C(=O)N[C@@H](CC(C)C)C(=O)N[C@@H](CCSC)C(=O)N1)C(C)C)[C@@H](C)CC)C(=O)N[C@@H](C)C(=O)N[C@@H](CC(C)C)C(=O)N[C@@H](CC(=O)O)C(=O)N[C@@H](CCCNC(=N)N)C(=O)N[C@H](C(N)=O)[C@@H](C)CC

IC50 [2]: ≤ 200 nM
B4: SP-89 (peptide)
peptide: Ac-EVLM[S5]LVI[S5]MGLDRIKELPELWL-NH2
modifications: staple 5-9
SMILES: CC[C@H](C)[C@H](NC(=O)[C@H](CCCNC(=N)N)NC(=O)[C@H](CC(=O)O)NC(=O)[C@H](CC(C)C)NC(=O)CNC(=O)[C@H](CCSC)NC(=O)[C@]1(C)CCCC=CCCC[C@](C)(NC(=O)[C@H](CCSC)NC(=O)[C@H](CC(C)C)NC(=O)[C@@H](NC(=O)[C@H](CCC(=O)O)NC(C)=O)C(C)C)C(=O)N[C@@H](CC(C)C)C(=O)N[C@@H](C(C)C)C(=O)N[C@@H]([C@@H](C)CC)C(=O)N1)C(=O)N[C@@H](CCCCN)C(=O)N[C@@H](CCC(=O)O)C(=O)N[C@@H](CC(C)C)C(=O)N1CCC[C@H]1C(=O)N[C@@H](CCC(=O)O)C(=O)N[C@@H](CC(C)C)C(=O)N[C@@H](Cc1c[nH]c2ccccc12)C(=O)N[C@@H](CC(C)C)C(N)=O

IC50 [2]: ≤ 200 nM
B5: SP-350 (peptide)
peptide: Ac-LLQAE[R8]LLRALD[S5]VNIDEEVL[Nle][S5]LVI[S5][Nle]-NH2
modifications: staple 6-13, 23-27
SMILES: CCCC[C@H](NC(=O)[C@]1(C)CCCC=CCCC[C@](C)(NC(=O)[C@H](CCCC)NC(=O)[C@H](CC(C)C)NC(=O)[C@@H](NC(=O)[C@H](CCC(=O)O)NC(=O)[C@H](CCC(=O)O)NC(=O)[C@H](CC(=O)O)NC(=O)[C@@H](NC(=O)[C@H](CC(N)=O)NC(=O)[C@@H](NC(=O)[C@]2(C)CCCC=CCCCCCC[C@@](C)(NC(=O)[C@H](CCC(=O)O)NC(=O)[C@H](C)NC(=O)[C@H](CCC(N)=O)NC(=O)[C@H](CC(C)C)NC(=O)[C@H](CC(C)C)NC(C)=O)C(=O)N[C@@H](CC(C)C)C(=O)N[C@@H](CC(C)C)C(=O)N[C@@H](CCCNC(=N)N)C(=O)N[C@@H](C)C(=O)N[C@@H](CC(C)C)C(=O)N[C@@H](CC(=O)O)C(=O)N2)C(C)C)[C@@H](C)CC)C(C)C)C(=O)N[C@@H](CC(C)C)C(=O)N[C@@H](C(C)C)C(=O)N[C@@H]([C@@H](C)CC)C(=O)N1)C(N)=O
